How the values were obtained:
mammary epithelial cells = test: Co-staining for ectopically expressed Sgk and apoptotic cells (TUNEL fluorescence assay); format: cell-based; settings: after hyperosmotic stress, ectopic expression
[1] = target: T1, epithelial sodium channel (ENaC) (Xenopus laevis, UniProt P51167+P51169+P51171); test: Epithelial sodium channel activity after co-expression in oocytes; format: cell-based
T1 construct: expressed in transfected cells; host or cells: Xenopus laevis oocytes (co-expression with Sgk)
T1 sequence (P51167 1-632): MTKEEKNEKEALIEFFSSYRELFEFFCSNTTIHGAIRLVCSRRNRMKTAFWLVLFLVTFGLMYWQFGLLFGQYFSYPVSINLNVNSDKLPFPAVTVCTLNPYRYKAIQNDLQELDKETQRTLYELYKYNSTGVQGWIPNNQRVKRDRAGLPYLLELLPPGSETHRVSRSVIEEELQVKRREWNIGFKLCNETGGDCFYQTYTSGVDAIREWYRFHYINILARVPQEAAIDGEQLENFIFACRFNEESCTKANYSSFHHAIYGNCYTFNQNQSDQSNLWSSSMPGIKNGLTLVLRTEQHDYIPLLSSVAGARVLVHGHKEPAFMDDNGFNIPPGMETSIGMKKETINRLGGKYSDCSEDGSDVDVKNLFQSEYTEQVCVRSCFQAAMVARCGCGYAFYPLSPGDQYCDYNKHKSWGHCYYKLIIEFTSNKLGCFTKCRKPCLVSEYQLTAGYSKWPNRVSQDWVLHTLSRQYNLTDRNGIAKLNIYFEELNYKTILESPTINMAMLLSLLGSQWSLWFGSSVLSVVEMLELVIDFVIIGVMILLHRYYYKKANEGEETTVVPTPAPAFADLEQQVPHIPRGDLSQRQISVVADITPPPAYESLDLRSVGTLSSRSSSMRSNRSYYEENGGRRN
T1 sequence (P51169 1-647): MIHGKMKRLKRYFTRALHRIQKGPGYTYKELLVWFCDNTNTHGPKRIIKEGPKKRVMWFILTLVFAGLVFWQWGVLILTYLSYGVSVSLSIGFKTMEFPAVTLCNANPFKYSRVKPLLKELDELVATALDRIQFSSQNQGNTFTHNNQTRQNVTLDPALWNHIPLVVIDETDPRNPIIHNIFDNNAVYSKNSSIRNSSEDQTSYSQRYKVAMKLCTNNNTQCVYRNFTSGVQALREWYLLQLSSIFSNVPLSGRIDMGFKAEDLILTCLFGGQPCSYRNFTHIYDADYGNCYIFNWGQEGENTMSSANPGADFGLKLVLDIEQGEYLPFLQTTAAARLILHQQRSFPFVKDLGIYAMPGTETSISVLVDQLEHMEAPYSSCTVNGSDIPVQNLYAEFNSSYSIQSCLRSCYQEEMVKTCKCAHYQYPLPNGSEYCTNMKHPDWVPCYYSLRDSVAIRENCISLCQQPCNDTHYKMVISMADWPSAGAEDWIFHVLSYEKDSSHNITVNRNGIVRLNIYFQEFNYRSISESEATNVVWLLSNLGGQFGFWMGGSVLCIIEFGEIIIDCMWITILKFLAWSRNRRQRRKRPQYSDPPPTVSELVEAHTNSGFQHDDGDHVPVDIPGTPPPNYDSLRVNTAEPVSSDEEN
T1 sequence (P51171 1-660): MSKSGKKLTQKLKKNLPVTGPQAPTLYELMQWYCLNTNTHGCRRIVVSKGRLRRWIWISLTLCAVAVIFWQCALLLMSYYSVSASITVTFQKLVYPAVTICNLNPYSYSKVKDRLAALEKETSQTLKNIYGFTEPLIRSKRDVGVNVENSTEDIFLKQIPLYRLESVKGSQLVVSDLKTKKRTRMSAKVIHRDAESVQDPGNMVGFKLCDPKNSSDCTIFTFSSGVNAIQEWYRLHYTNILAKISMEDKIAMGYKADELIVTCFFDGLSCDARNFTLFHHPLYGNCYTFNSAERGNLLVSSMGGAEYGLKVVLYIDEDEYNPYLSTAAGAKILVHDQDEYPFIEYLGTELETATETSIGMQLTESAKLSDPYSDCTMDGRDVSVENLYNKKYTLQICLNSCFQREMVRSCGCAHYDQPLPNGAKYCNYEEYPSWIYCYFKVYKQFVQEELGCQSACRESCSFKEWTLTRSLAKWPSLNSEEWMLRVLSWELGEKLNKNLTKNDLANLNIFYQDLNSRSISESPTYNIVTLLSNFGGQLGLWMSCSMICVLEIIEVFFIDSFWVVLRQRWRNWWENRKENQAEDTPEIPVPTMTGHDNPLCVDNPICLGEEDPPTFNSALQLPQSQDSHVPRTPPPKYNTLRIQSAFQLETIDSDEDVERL
From the text: Identification of Sgk-interacting proteins that may connect Sgk to the cellular stress response. Using the yeast two-hybrid genetic screening strategy discussed earlier, we also identified IF-1, which is a negative regulator of the mitochondrial F1 ATPase pump, as an Sgk-interacting protein. […] Furthermore, cell lysates containing endogenous Sgk induced in response to glucocorticoids, serum, hyperosmotic stress or UV radiation interacted specifically with the GST-IF1 fusion protein but not with GST alone, as assessed by anti-sgk immunoblotting. […] We disclose that in response to genotoxic or hormonal stress cues, high levels of Sgk protein are produced, which then binds to the IF1 ATPase inhibitor, thus activating the mitochondrial F1 ATPase. We have also shown that Sgk activates the epithelial sodium channel (ENaC) after their co-expression in Xenopus Laevis oocytes. […] These observations indicate that one function of Sgk is to regulate cell volume following osmotic stress of the cells. […] Intriguingly, the cytoplasmic domains of the ENaC beta subunit contain amino acid sequences surrounding a serine that indicate it is an endogenous substrate for Sgk. Previous studies have shown that both the beta and gamma subunits of EnaC are phosphorylated (Shimkets, R. A.,et al. 1998. Proc Natl Acad Sci USA 95:3301–5).

- basal ENaC activity [1]: inhibiting the basal EnaC activity
B1: K127M: Sgk with lysine 127 in the ATP binding domain substituted with methionine; kinase dead (protein, UniProt O00141 1-431, looked up, variant K127M)
Serine/threonine-protein …: MTVKTEAAKGTLTYSRMRGMVAILIAFMKQRRMGLNDFIQKIANNSYACKHPEVQSILKISQPQEPELMNANPSPPPSPSQQINLGPSSNPHAKPSDFHFLKVIGKGSFGKVLLARHKAEEVFYAVMVLQKKAILKKKEEKHIMSERNVLLKNVKHPFLVGLHFSFQTADKLYFVLDYINGGELFYHLQRERCFLEPRARFYAAEIASALGYLHSLNIVYRDLKPENILLDSQGHIVLTDFGLCKENIEHNSTTSTFCGTPEYLAPEVLHKQPYDRTVDWWCLGAVLYEMLYGLPPFYSRNTAEMYDNILNKPLQLKPNITNSARHLLEGLLQKDRTKRLGAKDDFMEIKSHVFFSLINWDDLINKKITPPFNPNVSGPNDLRHFDPEFTEEPVPNSIGKSPDSVLVTASVKEAAEAFLGFSYAPPTDSFL
- correlation between Sgk positive and TUNEL positive cells (mammary epithelial cells): ~55%
